Legend:
[1] = target: T1, vaccinia virus recombinant B5 protein (vaccinia virus, UniProt Q01227 20-275); assay: ELISA, B5 capture, IgG detect (luminescence) [C]
[2] = target: T1, vaccinia virus recombinant B5 protein; assay: surface plasmon resonance; format not stated; target taken from the text

B1: Ch8AH8AL (antibody, V domains shown)
VH: EVQLVESGGGLIKPGGSLRLSCAASGFIFRDYNINWVRQAPGKGLEWLGFIRTRASGRSTEYSASVKGRFTISRDDSKNIAYLHINSLKMEDTAVYYCAKKGDSYYYMDFWGKGTAVTVSS
VL: ELALTQPASVSGSPGQSITISCTGGRSDLGDSNFVSWYQQYPGKAPKLLIYQVNKRPSGVPDRFSASKSANTASLTISGLQTEDEADYFCSSYTTTSTYVFGIGTKVVVLG
- EC50 (read off the curve) [1]: ~0.03 µg/mL
- Kd [2]: ≤ 0.6 nM
- koff [2]: ≤ 1e-05 s⁻¹
- kon [2]: 20000 M⁻¹ s⁻¹
